# Paper PMC6585716 (Biopolymers, 2017)
# code X = not defined here; Az4 = not defined here
# Target: Recombinant human vascular endothelial growth factor (VEGF165) (human, UniProt P15692-4 1-191)
# Details: both partners purified
# Chain of Recombinant human vascular endothelial growth factor (VEGF165) (P15692 other isoform, or with tags, fused parts or gaps): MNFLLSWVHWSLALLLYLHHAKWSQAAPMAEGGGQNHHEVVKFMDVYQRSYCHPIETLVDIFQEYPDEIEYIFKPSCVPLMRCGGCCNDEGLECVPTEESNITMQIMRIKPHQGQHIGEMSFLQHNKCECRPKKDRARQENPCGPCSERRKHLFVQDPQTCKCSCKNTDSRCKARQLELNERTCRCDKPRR
binder,measurement,value
"{code X}-VEPNCDIHVMWEWECFERL-Az4 (cysteine pairing not given here; reading uncertain, also called anti-VEGF cyclic peptide ligand) [AnchorV (X-VEPNCDIHVMWEWECFERL-Az4)]",EC50,140 ± 21 nM
